Key:
[1] = target: recombinant 30Kc19 protein (Bombyx mori); assay: native gel or EMSA
[2] = target: recombinant 30Kc19 protein (Bombyx mori); assay: native gel or EMSA; remark: listed apart in the source
[3] = target: recombinant 30Kc19 protein (Bombyx mori); assay: native gel or EMSA; remark: listed apart in the source
[4] = target: recombinant 30Kc19 protein (Bombyx mori); assay: non-reducing SDS-PAGE
[5] = target: 30Kc19 C76A protein (Bombyx mori); assay: native gel or EMSA

Substance	stoichiometry N [1]	stoichiometry N [2]	stoichiometry N [3]	stoichiometry N [4]	stoichiometry N [5]
recombinant 30Kc19 protein (natural protein)	2	2	2	2	
30Kc19 C76A protein (natural protein)					2
